Values belong to the binder of their own block, whether it stands above or below them.
Experiments:
[1] = target: T1, cynomolgus monkey ANGPTL4 N-terminal region (amino acid residues 26-148) with an N-terminal hexa-histidine tag (cynomolgus monkey, UniProt Q9BY76 26-148 (human entry)); experiment: cell-based or functional assay
T1 chain: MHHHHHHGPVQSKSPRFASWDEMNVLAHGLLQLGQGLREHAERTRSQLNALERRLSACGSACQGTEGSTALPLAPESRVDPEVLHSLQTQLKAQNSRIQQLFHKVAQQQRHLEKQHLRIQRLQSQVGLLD

[2] = target: T2, amino acid residues 26-148 of human ANGPTL4 fused in-line to mouse IgG2a (hANGPTL4-mFc) (human); experiment: cell-based or functional assay
T2 chain: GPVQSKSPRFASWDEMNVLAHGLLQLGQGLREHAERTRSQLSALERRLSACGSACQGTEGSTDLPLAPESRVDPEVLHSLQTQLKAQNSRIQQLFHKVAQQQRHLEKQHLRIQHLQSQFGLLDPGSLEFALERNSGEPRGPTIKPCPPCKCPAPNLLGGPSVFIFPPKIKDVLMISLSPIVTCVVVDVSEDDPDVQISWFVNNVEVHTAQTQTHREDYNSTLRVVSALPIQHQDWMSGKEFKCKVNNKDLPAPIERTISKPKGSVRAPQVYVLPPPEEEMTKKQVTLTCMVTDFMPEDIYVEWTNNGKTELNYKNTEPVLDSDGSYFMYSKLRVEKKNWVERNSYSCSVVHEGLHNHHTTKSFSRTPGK

[3] = target: T3, full-length hANGPTL4 (amino acid residues 26-406 of SEQ ID NO:476) with a C-terminal hexa-histidine tag (human, UniProt Q9BY76 26-406); experiment: cell-based or functional assay
T3 sequence: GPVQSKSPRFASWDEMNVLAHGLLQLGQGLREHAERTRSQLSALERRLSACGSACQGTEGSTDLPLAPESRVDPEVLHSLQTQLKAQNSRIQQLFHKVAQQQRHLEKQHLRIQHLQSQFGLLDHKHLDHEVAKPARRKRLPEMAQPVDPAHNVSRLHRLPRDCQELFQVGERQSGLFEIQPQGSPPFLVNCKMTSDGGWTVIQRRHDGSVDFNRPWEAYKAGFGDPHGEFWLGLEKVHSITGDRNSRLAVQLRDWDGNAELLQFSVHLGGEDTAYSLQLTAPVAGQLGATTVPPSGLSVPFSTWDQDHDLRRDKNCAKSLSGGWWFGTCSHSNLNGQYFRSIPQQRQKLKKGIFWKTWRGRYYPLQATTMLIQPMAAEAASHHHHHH

[4] = target: T2, amino acid residues 26-148 of human …; experiment: SPR (Biacore T100), hANGPTL4-mFc captured by anti-mouse IgG, antibody injected, 37° C.
Experimental: Antigen-antibody binding and dissociation were monitored in real time at 25° C. and 37° C. Kinetic analysis was performed to calculate KD and half-life of antigen/antibody complex dissociation.

[5] = target: T4, cynomolgus monkey ANGPTL4 N-terminal region (amino acid residues 1-130 of SEQ ID NO:490) with a C-terminal … (cynomolgus monkey (Macaca fascicularis), UniProt Q9BY76 26-130 (human entry)); experiment: SPR (Biacore), 25° C., pH 5.75, antigen amino-coupled 1,028 RU; Full mAb, not Fab; pH 5.75
T4 construct: also called MfANGPTL4(1-130)-His
T4 chain: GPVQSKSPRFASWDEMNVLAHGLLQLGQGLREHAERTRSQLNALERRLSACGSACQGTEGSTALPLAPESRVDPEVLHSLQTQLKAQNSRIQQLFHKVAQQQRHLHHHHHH
Experimental: (§1) Kinetic analysis was performed to measure kₐ and kd, and KD values and half-life of antigen/antibody complex dissociation were calculated. The results are shown in Table 4 (H1H268P) and Table 5 (H1H284P).

[6] = target: T3, full-length hANGPTL4 (amino acid …); experiment: SPR (Biacore), 25° C., pH 7.2, antigen amino-coupled 450 RU
Experimental: as §1

[7] = target: T2, amino acid residues 26-148 of human …; experiment: SPR (Biacore), 25° C., pH 5.75, antigen captured by anti-mFc
Experimental: as §1

[8] = target: T2, amino acid residues 26-148 of human …; experiment: cell-based or functional assay
[9] = target: T3, full-length hANGPTL4 (amino acid …); experiment: cell-based or functional assay; remark: listed apart in the source
[10] = target: T2, amino acid residues 26-148 of human …; experiment: SPR (Biacore), 25° C., pH 7.2, antigen captured by anti-mFc
Experimental: as §1

IC50 (nM) in the LPL bioassay, constant ANGPTL4 10 nM [1]: 0.42 nM | IC50 (nM) in the LPL bioassay, constant ANGPTL4 2 nM [2]: 0.51 nM | IC50 (nM) in the LPL bioassay, constant ANGPTL4 10 nM [3]: 0.31 nM | Kd [4]: 0.349 nM | t1/2 [4]: 1.35 h | Kd [5]: 0.0543 nM | Kd [6]: 0.105 nM | koff [6]: 8.85e-05 s⁻¹ | kon [6]: 850000 M⁻¹ s⁻¹ | t1/2 [6]: 2.17 h | Kd [7]: 0.0819 nM | koff [7]: 8.91e-05 s⁻¹ | kon [7]: 1.09e+06 M⁻¹ s⁻¹ | t1/2 [7]: 2.17 h | IC50 (nM) in the LPL inhibition assay, constant ANGPTL4 2 nM [8]: 0.33 nM | IC50 (nM) in the LPL inhibition assay, constant ANGPTL4 10 nM [9]: 0.42 nM | Kd [10]: 0.196 nM | koff [10]: 5.36e-05 s⁻¹ | kon [10]: 274000 M⁻¹ s⁻¹ | t1/2 [10]: 3.6 h
B1: H1H284P (antibody, V domains shown)
VH: QVQLVESGGGVVQPGRSLRLSCAASGFTFSSYGMHWVRQAPGKGLEWMAVISFDGGNKNNADSVKGRFTISRDNSKNTLYLQMNSLRAEDTAVYYCAKEGDRSGHPYFYYYGLDVWGQGTTVTVS
VL: DIQLTQSPSFLSASVGDRVTITCWASQGISSYLAWYQQKPGKAPKLLIYAASTLQSGVPSRFSGSGSETEFTLTISSLQPEDFATYYCQQLHSYPLTFGGGTKVEIK
notes: also called entire H1H284 mAb; Full mAb

IC50 (nM) in the LPL bioassay, constant ANGPTL4 10 nM [1]: 0.42 nM | IC50 (nM) in the LPL bioassay, constant ANGPTL4 2 nM [2]: 0.47 nM | IC50 (nM) in the LPL bioassay, constant ANGPTL4 10 nM [3]: 0.46 nM | Kd [4]: 0.389 nM | t1/2 [4]: 0.95 h | Kd [5]: 0.0772 nM | koff [5]: 8.24e-05 s⁻¹ | kon [5]: 1.07e+06 M⁻¹ s⁻¹ | Kd [6]: 0.408 nM | koff [6]: 0.0002 s⁻¹ | kon [6]: 489000 M⁻¹ s⁻¹ | t1/2 [6]: 0.967 h | Kd [7]: 0.22 nM | koff [7]: 0.000138 s⁻¹ | kon [7]: 628000 M⁻¹ s⁻¹ | t1/2 [7]: 1.4 h | IC50 (nM) in the LPL inhibition assay, constant ANGPTL4 2 nM [8]: 0.67 nM | IC50 (nM) in the LPL inhibition assay, constant ANGPTL4 10 nM [9]: 0.2 nM | Kd [10]: 0.629 nM | koff [10]: 9.59e-05 s⁻¹ | kon [10]: 153000 M⁻¹ s⁻¹ | t1/2 [10]: 2 h
B2: H1H268P (antibody, V domains shown)
VH: QVQLQESGAGLLKPSETLSLTCTVYGGSFSIHHWTWIRHPPGKGLEWIGEINHRGSTNYNPSLKSRVTISIDTSKNQFSLKLSAVTAADTAVYYCARGLRFLDWLSSYFDYWGQGTLVTVSS
VL: DIQMTQSPSSLSASVGDRVTITCRASQGISDYLAWYQQKPGKVPNLLIYAASALQSGVPSRFSGSGSGTDFTLTISSLQPEDVATYYCQNYNTAPLTFGGGTKVEIK
notes: also called entire H1H268 mAb; Full mAb

— patent US20130266574A1 (Regeneron, published 2013)
